# Results published in the supplement of paper PMC10724198.
# ± gives the standard deviation of the averaged measurements.
# Tested on: Saccharomyces cerevisiae
# Experiment: protein stability index of tFT-peptide fusion (C-terminal peptide) (PSI (0-1 scale)); higher = more stable (slower turnover)
# Conditions: genetic background: wild type; temperature: 30 C
# 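Note: PSI is a weighted mean of sequencing reads over stability bins, variants kept only with over 10 reads, mCherry proximal and sfGFP distal, peptide attached via GGGS linker.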
row,Sequence,protein stability index
1,PPLGPRARPPPR,0.734 ± 0.024
2,PPLLPPPSPPPP,0.684 ± 0.04
3,PPLPLPPPLLPP,0.659 ± 0.059
4,PPLPPAPLPLPT,0.639 ± 0.051
5,PPLPPLLFRSPP,0.687 ± 0.017
6,PPLPPLPVPPTL,0.738 ± 0.11
7,PPLPPPAPSFPT,0.684 ± 0.06
8,PPLPPPQDPRLP,0.7 ± 0.097
9,PPLPPPRYLPPT,0.7124 ± 0.0027
10,PPLPPSPLPLPP,0.664 ± 0.023
11,PPLPPSPPFPPP,0.653 ± 0.015
12,PPLPSAPSTYPA,0.634 ± 0.012
13,PPLPSMVLQRIY,0.589 ± 0.0065
14,PPLQFFLYRSWV,0.664 ± 0.044
15,PPLRPAPPPPLS,0.7 ± 0.12
16,PPLSAPPPSPSP,0.702 ± 0.065
17,PPLSGNLPCFRF,0.713 ± 0.03
18,PPLSPPLPPPPS,0.7188 ± 0.0062
19,PPLSPPPPPPVP,0.688 ± 0.066
20,PPLTHPPPPLYL,0.694 ± 0.008
21,PPMALPELPLFP,0.738 ± 0.071
22,PPNLLPRPPPRG,0.559 ± 0.047
23,PPPALPPPPFPP,0.591 ± 0.011

row,Sequence,protein stability index
1,PPPALPPPPRPP,0.604 ± 0.065
2,PPPAPPPLAPPL,0.713 ± 0.0086
3,PPPAPPPPPSSR,0.667 ± 0.007
4,PPPAPQTATPHR,0.714 ± 0.022
5,PPPCPPPPLSRP,0.666 ± 0.058
6,PPPCRPSQFPPL,0.742 ± 0.015
7,PPPCSFTRKRQR,0.664 ± 0.014
8,PPPDKTPERRPC,0.644 ± 0.054
9,PPPFPPPPARSL,0.474 ± 0.043
10,PPPFRFPALLPP,0.6778 ± 0.0007
11,PPPFSPLPLPPS,0.71 ± 0.044
12,PPPGPPLPPGLP,0.749 ± 0.033
13,PPPGSPLRPSRL,0.748 ± 0.12
14,PPPHLPPPPPTQ,0.658 ± 0.059
15,PPPHPALPHPLH,0.682 ± 0.01
16,PPPHTRVIPSSP,0.6763 ± 0.0052
17,PPPLCLHAPFPP,0.626 ± 0.045
18,PPPLDSPPPPPP,0.664 ± 0.019
19,PPPLLPVPQPLF,0.672 ± 0.087
20,PPPLLSPLSPPP,0.571
21,PPPLPAAHFSTP,0.663 ± 0.022
22,PPPLPPPPHGVP,0.6889 ± 0.0066
23,PPPLPPPPPTRP,0.616 ± 0.063

row,Sequence,protein stability index
1,PPPLPPSPPHHP,0.689 ± 0.04
2,PPPLPRPRSTAL,0.674 ± 0.043
3,PPPLTVPLLSPP,0.662 ± 0.046
4,PPPLVPPPPSSL,0.731 ± 0.011
5,PPPNPPATTTTP,0.6685 ± 0.0012
6,PPPPALLPPPPA,0.781 ± 0.27
7,PPPPAPPLPPPP,0.707 ± 0.039
8,PPPPFWPLSPAL,0.713 ± 0.039
9,PPPPGCLPRPAS,0.699 ± 0.021
10,PPPPHPPSPSLP,0.664 ± 0.1
11,PPPPHTPPLPRS,0.757 ± 0.048
12,PPPPLLPRTPPH,0.54 ± 0.044
13,PPPPLLPSPFPP,0.653 ± 0.031
14,PPPPLPATPGAS,0.6857 ± 0.0018
15,PPPPLPPPPSPL,0.653 ± 0.078
16,PPPPLPPRPPPP,0.704 ± 0.026
17,PPPPLPRPPPPP,0.615 ± 0.061
18,PPPPLSLPPVPL,0.736 ± 0.012
19,PPPPLVPLPASP,0.688 ± 0.072
20,PPPPPAPPALPP,0.6734 ± 0.001
21,PPPPPAPPLSLP,0.61 ± 0.01
22,PPPPPARPSVPP,0.673 ± 0.077
23,PPPPPASPPSAP,0.605 ± 0.063

row,Sequence,protein stability index
1,PPPPPDAPRSSL,0.7043 ± 0.0066
2,PPPPPHPALPVP,0.734 ± 0.016
3,PPPPPIPRPPHA,0.73 ± 0.03
4,PPPPPLPLCRRP,0.756 ± 0.06
5,PPPPPLPLPPPF,0.697 ± 0.023
6,PPPPPLPPAPPP,0.558 ± 0.022
7,PPPPPLPPLPCP,0.695 ± 0.03
8,PPPPPLPPPPTP,0.652 ± 0.058
9,PPPPPLPPQLSH,0.756 ± 0.011
10,PPPPPLPSPTPP,0.735 ± 0.024
11,PPPPPLPTPPPS,0.653 ± 0.036
12,PPPPPLSPPSLV,0.725 ± 0.02
13,PPPPPPCSPATS,0.747 ± 0.14
14,PPPPPPLPPPPL,0.671 ± 0.019
15,PPPPPPLSVPPL,0.695 ± 0.077
16,PPPPPPPHHSPP,0.722 ± 0.047
17,PPPPPPPPPSPP,0.704 ± 0.0066
18,PPPPPPPPPVLP,0.675 ± 0.0081
19,PPPPPPPSLLLP,0.828 ± 0.041
20,PPPPPPPTPPPP,0.673 ± 0.014
21,PPPPPPRPLAPS,0.679 ± 0.029
22,PPPPPPRPPSAH,0.708 ± 0.087
23,PPPPPPRPPSSP,0.694 ± 0.022

row,Sequence,protein stability index
1,PPPPPPSLPPPS,0.714 ± 0.015
2,PPPPPPSLPYLL,0.771 ± 0.042
3,PPPPPPSPLTLP,0.775 ± 0.086
4,PPPPPSAPSPLP,0.665 ± 0.05
5,PPPPPSPPPPPH,0.704 ± 0.0074
6,PPPPPYPPCIPL,0.695 ± 0.048
7,PPPPRDPLPLPR,0.677 ± 0.018
8,PPPPRPAPSAPY,0.676 ± 0.045
9,PPPPRPASPGSP,0.622 ± 0.065
10,PPPPRPLPLPTT,0.751 ± 0.056
11,PPPPRPLPTSRP,0.689 ± 0.012
12,PPPPRPPPALLP,0.736 ± 0.021
13,PPPPRPPPQSPS,0.724 ± 0.021
14,PPPPRRAPPPGT,0.699 ± 0.021
15,PPPPRSPPHPLL,0.69 ± 0.013
16,PPPPRSPVCLPL,0.792 ± 0.011
17,PPPPSLPPPSRP,0.7125 ± 0.0063
18,PPPPSPGPASPA,0.716 ± 0.045
19,PPPPSTRPSYSP,0.756 ± 0.23
20,PPPPTALPHPDL,0.604 ± 0.012
21,PPPPTPHRSPLL,0.598 ± 0.029
22,PPPPTQPPARPP,0.68 ± 0.014
23,PPPPTRSRRNLP,0.705 ± 0.047

row,Sequence,protein stability index
1,PPPPVPPLYLPP,0.684 ± 0.017
2,PPPRLAPTLLPA,0.5999 ± 0.0046
3,PPPRPDPPSLLD,0.545 ± 0.0085
4,PPPRPHTPPQLA,0.708 ± 0.019
5,PPPRPPLALSPP,0.646 ± 0.032
6,PPPRPPRPPCPF,0.732 ± 0.059
7,PPPRPSPLSSSL,0.678 ± 0.094
8,PPPRRPPSPPSP,0.729 ± 0.021
9,PPPRTPGCPIPP,0.5737 ± 0.0032
10,PPPSLPATPIPP,0.656 ± 0.055
11,PPPSPAPCPPSS,0.777 ± 0.043
12,PPPSPDPPLTPF,0.723 ± 0.06
13,PPPSPFLPSPFR,0.7066 ± 0.0061
14,PPPSPPPLPDPH,0.697 ± 0.079
15,PPPSPPSPHAPP,0.643 ± 0.1
16,PPPSRPLLPFPP,0.706 ± 0.012
17,PPPSRTPPLNPR,0.741 ± 0.096
18,PPPSSILSPSTS,0.659 ± 0.046
19,PPPSSPPPLPLP,0.681 ± 0.017
20,PPPTAPPTTTTR,0.696 ± 0.055
21,PPPTAPSLSSPS,0.688 ± 0.047
22,PPPTPPRPPPLP,0.7059 ± 0.0022
23,PPPTPRIPRPLR,0.717 ± 0.02

row,Sequence,protein stability index
1,PPPTPRRPPCHT,0.668 ± 0.045
2,PPPTVRLSCVPP,0.794 ± 0.031
3,PPPVLPPPPVSP,0.719 ± 0.03
4,PPPVLSPRFPVL,0.731 ± 0.14
5,PPPVRFPSLPLA,0.8189 ± 0.0061
6,PPPVVLPSTLLS,0.6665 ± 0.0014
7,PPRAHQSCPCRR,0.719 ± 0.055
8,PPRALPPPLPLP,0.72 ± 0.083
9,PPRCHPPPPFPP,0.6466 ± 0.0047
10,PPRGCLYFSRPP,0.739 ± 0.095
11,PPRGPPPPPADP,0.7 ± 0.022
12,PPRHPSPGLVPT,0.722 ± 0.04
13,PPRLLATVTRGT,0.654 ± 0.025
14,PPRLVPPLPPPL,0.635 ± 0.048
15,PPRPAPTSFKRG,0.718 ± 0.037
16,PPRPPPLLPRTL,0.707 ± 0.014
17,PPRPPPPPPAPL,0.688 ± 0.019
18,PPRPPPPRPPPL,0.742 ± 0.028
19,PPRPRSARLFLR,0.728 ± 0.05
20,PPRRPPPPPPLP,0.7168 ± 0.0045
21,PPRVVPDISTSL,0.699 ± 0.039
22,PPSATPPHPPPS,0.666 ± 0.052
